Biological target: T1, human CD47 on CCRF-CEM cells (CD47 positive cells) (human, UniProt Q08722 19-323)
T1 construct: whole, on cells; also called hCD47-expressing tumor cells CCRF-CEM; CD47 receptor on the cell surface
Assay: CD47-SIRPα blocking experiment, FIG. 5 legend

B1: hybridoma positive clone 10B8 (antibody, V domains shown)
VH: QIQLQQSGPDLVKPGASVKISCKASGYTFTDYYIHWMKQKPGQGLEWIGWIYPGSGNTKYNEKFKGKATLTVDTSSSTPYMQLSSLTSEDTAVYFCARRREDSFDYWGQVTTLTVSS
VL: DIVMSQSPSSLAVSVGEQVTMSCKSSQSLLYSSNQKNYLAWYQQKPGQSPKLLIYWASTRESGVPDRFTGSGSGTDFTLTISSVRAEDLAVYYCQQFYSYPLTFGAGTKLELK
notes: Mouse hybridoma supernatant in the assay; Variable regions are printed for subclone 10B8-B8; also called Clone 10B8-B8
B1: binds.
